B1: Androgen receptor, residues 557 to 632; numbered along this chain, P10275 (parent)
chain: QKTCLICGDEASGCHYGALTCGSCKVFFKRAAEGKQKYLCASRNDCTIDKFRRKNCPSCRLRKCYEAGMTLGARKL

± gives the uncertainty stated by the source.

The variants in this series derive from B1. Briefly: abundance fitness (aPCA) (normalised: wild type 0, dead -1); higher = more abundant; growth selection in yeast, the domain comes from the species named. Conditions: Homo sapiens.
Turning to T3C, the abundance fitness amounted to 0.014 ± 0.13.
For T3K, the abundance fitness is -0.252 ± 0.1.
For Y65G the value was -0.218 ± 0.064; for Y65H, -0.1 ± 0.18.
For Y65C the value was 0.036 ± 0.11.
For Y65Q the value was -0.037 ± 0.14; for Y65I, -0.081 ± 0.24.
With L76S, the abundance fitness is -0.084 ± 0.086.
Consider I6V, for which the abundance fitness was -0.243 ± 0.07.
Take D9F: the abundance fitness is -0.562 ± 0.21.
For D9Y, the abundance fitness was -0.609 ± 0.4.
D9Q: the abundance fitness is -0.071 ± 0.14.
To D9K belongs -0.53 ± 0.17.
Turning to D9V, the abundance fitness was -0.201 ± 0.062.
To D9L belongs -0.626 ± 0.15; to D9C, -0.053 ± 0.1; to D9H, 0.138 ± 0.35.
For D9I the value was -0.109 ± 0.13.
Consider N44D, for which the abundance fitness is -0.002 ± 0.091.
To N44K belongs -0.177 ± 0.099; to N44I, -0.433 ± 0.21.
For N44G the value was 0.026 ± 0.039; for N44T, -0.159 ± 0.068; for N44V, -0.343 ± 0.068.
As to G8A, the abundance fitness amounted to 0.009 ± 0.067.
To S12D belongs -0.031 ± 0.075; to S12F, -0.389 ± 0.23.
Turning to S12M, the abundance fitness is -0.026 ± 0.086.
To K29L belongs -0.331 ± 0.086.
Regarding K29C, the abundance fitness was -0.49 ± 0.28.
In the case of K29F, the abundance fitness was 0.019 ± 0.24.
With K29E, the abundance fitness was 0.202 ± 0.11.
K29M: the abundance fitness is -0.245 ± 0.15.
To K29N belongs -0.123 ± 0.14; to T47C, -0.077 ± 0.035.
As for T47L, the abundance fitness was -0.041 ± 0.029.
As for T47N, the abundance fitness was -0.067 ± 0.053.
For A73Y the value was -0.166 ± 0.22; for A73L, -0.176 ± 0.073.
On to A73D, for which the abundance fitness was -0.026 ± 0.07.
For A73Q the value was -0.138 ± 0.1; for A73W, -0.203 ± 0.071.
To A73P belongs -0.44 ± 0.15; to A73R, 0.008 ± 0.059; to A73E, 0.013 ± 0.068.
As to A73N, the abundance fitness was -0.047 ± 0.17.
For A73F the value was -0.326 ± 0.12; for C64M, -0.125 ± 0.12.
To C64N belongs -0.505 ± 0.45.
For C64A, the abundance fitness was -0.306 ± 0.096.
To C64F belongs -0.745 ± 0.48.
With C64V, the abundance fitness is -0.879 ± 0.27.
For C64R, the abundance fitness was -1.06 ± 0.32.
To C56R belongs -1.02 ± 0.21; to C56G, -1.05 ± 0.29.
As to C56N, the abundance fitness is -0.968 ± 0.24.
For the variant C56S, the abundance fitness is -0.776 ± 0.12.
To C56M belongs -0.662 ± 0.24; to C56K, -0.848 ± 0.37.
As to C56D, the abundance fitness is -0.663 ± 0.22.
For C56A the value was -0.533 ± 0.18; for C56I, -0.782 ± 0.22; for N55T, -0.012 ± 0.065.
To N55C belongs -0.075 ± 0.14; to N55I, -0.075 ± 0.073.
To N55D belongs 0.032 ± 0.078; to N55Q, -0.076 ± 0.081.
Take T20V: the abundance fitness worked out at 0.04 ± 0.038.
For T20S the value was 0.047 ± 0.046.
For T20C the value was 0.002 ± 0.064; for T20H, -0.299 ± 0.15.
As for T20K, the abundance fitness was -0.755 ± 0.24.
As for T20A, the abundance fitness was -0.041 ± 0.035.
T20M: the abundance fitness is -1 ± 0.18.
For T20G the value was -0.539 ± 0.042.
Regarding S23C, the abundance fitness was -0.185 ± 0.076.
For S23W the value was -0.137 ± 0.041.
To S23T belongs -0.233 ± 0.041.
Turning to S23M, the abundance fitness is -0.137 ± 0.035.
To S23N belongs -0.108 ± 0.082; to A18H, -0.799 ± 0.15; to A18G, -0.335 ± 0.033.
To A18D belongs -0.232 ± 0.073; to A18E, -0.617 ± 0.074.
For A18W, the abundance fitness was -1.07 ± 0.12.
To A18R belongs -0.24 ± 0.039.
With D45E, the abundance fitness was -0.037 ± 0.082.
For D45T the value was -0.091 ± 0.1; for D45P, -0.221 ± 0.29; for D45L, -0.177 ± 0.075.
To D45Y belongs -0.176 ± 0.25; to D45N, 0.009 ± 0.085; to D49I, -0.283 ± 0.22.
To D49L belongs -0.502 ± 0.14; to D49Y, -0.634 ± 0.21.
In the case of D49M, the abundance fitness is -0.448 ± 0.21.
Take D49R: the abundance fitness was -0.342 ± 0.081.
Regarding D49E, the abundance fitness was -0.066 ± 0.089.
For D49F the value was -0.613 ± 0.17; for L5C, -0.07 ± 0.078.
For L5I, the abundance fitness was -0.04 ± 0.052.
Regarding L5T, the abundance fitness is -0.01 ± 0.05.
For L5Y the value was -0.162 ± 0.049; for L5K, -0.053 ± 0.06.
For L5N, the abundance fitness was -0.058 ± 0.048.
For L5R the value was -0.105 ± 0.046; for C46R, -0.892 ± 0.073; for C46P, -0.926 ± 0.12.
To C46T belongs -0.713 ± 0.085; to C46V, -0.942 ± 0.088.
To C46E belongs -0.542 ± 0.1; to C46F, -0.912 ± 0.12; to C46N, -0.711 ± 0.14.
Take C24Q: the abundance fitness is -0.932 ± 0.086.
To C24H belongs -0.891 ± 0.095; to C24F, -1.06 ± 0.099.
Consider C24D, for which the abundance fitness was -0.695 ± 0.064.
On to C24K, for which the abundance fitness was -0.957 ± 0.079.
C24G: the abundance fitness was -0.907 ± 0.04.
For C24S the value was -1.1 ± 0.072; for R52K, -0.033 ± 0.11.
In the case of R52P, the abundance fitness turned out to be 0.004 ± 0.063.
For the variant R52N, the abundance fitness is -0.072 ± 0.069.
For R52Q the value was -0.063 ± 0.1; for R52V, 0.041 ± 0.057.
As for R52C, the abundance fitness is -0.087 ± 0.095.
On to V26E, for which the abundance fitness came to 0.014 ± 0.071.
For V26N the value was 0.069 ± 0.05; for V26D, 0.043 ± 0.077; for V26T, -0.002 ± 0.04.
For V26F the value was -0.13 ± 0.058; for V26C, -0.012 ± 0.058; for Q1M, 0.007 ± 0.1.
Take Q1P: the abundance fitness is -0.439 ± 0.23.
On to Q1N, for which the abundance fitness is -0.053 ± 0.36.
As to Q1L, the abundance fitness is -0.027 ± 0.086.
Turning to Q1I, the abundance fitness came to 0.198 ± 0.15.
For Q1D the value was 0.071 ± 0.14; for Q1C, -0.019 ± 0.14; for K25R, -0.066 ± 0.021.
To K25I belongs -0.24 ± 0.033; to K25D, -0.025 ± 0.03; to K25T, 0.005 ± 0.025.
For K25L the value was -0.099 ± 0.021; for K25V, -0.043 ± 0.023.
Turning to K25M, the abundance fitness amounted to 0.013 ± 0.027.
For K25C the value was 0.012 ± 0.027.
Regarding K25S, the abundance fitness stood at 0.03 ± 0.022.
To K25F belongs -0.062 ± 0.029; to K25H, -0.011 ± 0.035; to I48W, -0.37 ± 0.041.
Take I48L: the abundance fitness is -0.204 ± 0.033.
For I48N the value was -0.199 ± 0.043; for I48S, -0.251 ± 0.032.
Take I48Q: the abundance fitness was -0.203 ± 0.047.
As to I48Y, the abundance fitness is -0.177 ± 0.043.
For G22E the value was 0.064 ± 0.062; for G22D, -0.033 ± 0.064.
For G22Q the value was -0.037 ± 0.058; for G22C, -0.064 ± 0.051; for G22T, -0.06 ± 0.063.
As for G22F, the abundance fitness was -0.322 ± 0.053.
To L39P belongs -0.086 ± 0.038.
As for L39Q, the abundance fitness was 0.011 ± 0.041.
Turning to L39K, the abundance fitness was determined as 0.094 ± 0.036.
For L39S the value was -0.128 ± 0.031; for L39N, -0.008 ± 0.038.

Values taken from the Human Domainome abundance scans (Beltran et al. 2025).
